Experimental findings from publication PMC12781872 are described below.

Values joined by “and” are separate entries in the source; they are usually repeats but may differ in a detail not shown here. Equal entries are not always repeated.

A word on the Kd: it is the concentration at which binding is half-saturated. Read a high Kd as a looser complex.

The target in the assay is Dylight488-labelled Mtb RNAP core derivative (β' D359 4-azido-L-phenylalanine) (Mycobacterium tuberculosis) (UniProt P9WGZ1). Kind of assay: FRET or BRET. (In general: BRET reads energy transfer from a luciferase to a nearby fluorophore.)

As for “TMR-labelled Mtb σ^F used in the FRET competition and titration assays (from UniProt P9WGI3 1-261) (natural protein)”, the Kd is 21.1 nM and 2.6 nM.
